Assay: yeast display, Sf9 membrane polyspecificity reagent, FACS + sequencing; frameworks hold sequencing errors
In short: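 A synthetic nanobody library was expressed on Saccharomyces cerevisiae BJ5465 by galactose induction for 36–48 hours. The library was stained for 1 hour at 4 °C with 10% biotinylated, detergent-solubilized Sf9 membrane reagent and enriched with streptavidin microbeads before FACS. Low and high (top ~1%) gates were set on anti-HA fluorescence for expression and streptavidin fluorescence for reagent binding, and each polyreactivity label reflects the gate of origin.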

**Q.** With “QVQLVESGGGLVQAGGSLRLSCAASGTTFAYNAMGWYIQAPGKEREMVAAISTSGGSTNYADSVKGRYTISRDNAMNTVYLQMNSLKPEDTAVYYCAARPKTPSITRYGYWGQGTQVTVSS” as the sequence, how does the “polyreactivity (PSR sort gate)” value read?
**A.** The value was “high polyreactivity”.

**Q.** For “QVQLVESGGGLVQAGGSLRLSCAASGTTFCSYAMGRYRQAPGKEREFVAAISSSDDSTYYADSVKGRFTISRDYAKNTVYLQMNSLKPEDTAVYYCAAAQRVNHVWYDYWGQGTQVTVSS”, which “polyreactivity (PSR sort gate)” value is on record?
**A.** Its value is “low polyreactivity”.

**Q.** For “QVQLVESGGGLVQAGGSLRLSCAASGTTFGGNSMGWYRQAPGKERELVAAIDSGGSTYADSVKGRFTISRDNAKNTVYLQMNSLKPEDTAVYYCAAVWEFVHYWRFDYWGQGSQVTVSS”, which “polyreactivity (PSR sort gate)” value is on record?
**A.** The value was “low polyreactivity”.

**Q.** For “QVQLVESGGGLVQAGGSLRLSCAASGTTFGINAMGWYRQAPGKERELVASITRRGGSTYYADSVKGRFTISRDNAKNTVYLQMNSLKPEDTAVYYCNKTYRYGTPLYDYWGQGTQVTVSS”, which “polyreactivity (PSR sort gate)” value is on record?
**A.** The value was “high polyreactivity”.

**Q.** Which “polyreactivity (PSR sort gate)” value does the source give for “QVQLVESGGGLVQAGGSLRLSCAASGTTFGPNAMGWYRQAPGTERELVAAIRWRGGSTYYADSVQGRFTIARDNAKNTVYLQMNSLKPEDTAVYYCADTRYSWHNRVSRRHRYDYWGQGTQVTVSS” here?
**A.** Its value is “high polyreactivity”.

**Q.** With “QVQLVESGGGLVQAGGSLRLSCAASGTTFGQYAKGWYRQAPGKERDLLAAISSGGRTNYADSVKGRFTISRDNAKNTVYLQMNCVKPEDSAVYDCAARYYFPFRRFRRMDYWGQGTQVTVSS” as the sequence, how does the “polyreactivity (PSR sort gate)” value read?
**A.** Its value is “high polyreactivity”.

**Q.** Which “polyreactivity (PSR sort gate)” value does the source give for “QVQLVESGGGLVQAGGSLRLSCAASGTTFGRYAMGWYRQAPGKERELVAAITRSGGRTYYADSVKERFTISRDNAKNTVYLQMNSLIPEDTAVYYCAAVGNLYYTSLWQYDYWGQGTQVTVSS” here?
**A.** Its value is “high polyreactivity”.

**Q.** Which “polyreactivity (PSR sort gate)” value does the source give for “QVQLVESGGGLVQAGGSLRLSCAASGTTFKTYCMGRYRQAPGKERELVAAISRRGGSTSYADSVKGRFTISRDNAKNTVYLQMNSLKPEDTAVYYCNVLGWWHVWGYDYWGQGTQVTVSS” here?
**A.** The value was “high polyreactivity”.

**Q.** Which “polyreactivity (PSR sort gate)” value does the source give for “QVQLVESGGGLVQAGGSLRLSCAASGTTFTDNAMGWYRQAPGKERELVAAITSGSSTNYADSVKGRFTISRDNAKNTVSLQMNSLKPEDTAVYYCATGQVPQYSTGDYWGQGTQVTVSS” here?
**A.** Its value is “low polyreactivity”.

**Q.** With “QVQLVESGGGLVQAGGSLRLSCAASGTTLPYYAMGWYRQAPGKERELVAAITSSGGDTYYADSVKGRFTISRDNAKNTVYLQMNSLKPEDTAVYYCAKSYSARSTVRKLFYFAYDYWGQGTQVTVSS” as the sequence, how does the “polyreactivity (PSR sort gate)” value read?
**A.** The value was “low polyreactivity”.

**Q.** For “QVQLVESGGGLVQAGGSLRLSCAASGTYFNAMGWYRQAPGKERELVAAISLSGGRTYYADSVKGRFTISRDNAKNTVYLQMNSLKPEDTAVYYCAASNRGATRRQVNYWGQGTQVTVSS”, which “polyreactivity (PSR sort gate)” value is on record?
**A.** The value was “high polyreactivity”.

**Q.** For “QVQLVESGGGLVQAGGSLRLSCAASGVIFGPNAMGWYRQAPGKERELVAAIRWSGSRTYYADSVKGRFTISRDNAKNTVYLQMNSLKPEDTAVYYCAATGGLNGALSRLEYWGQGTQVTVSS”, which “polyreactivity (PSR sort gate)” value is on record?
**A.** Its value is “high polyreactivity”.

**Q.** With “QVQLVESGGGLVQAGGSLRLSCAASGVIFGYYAMGWDRQAPGKERELVAAITLSGSRTYYADSVTGRFTISRDTAKNTVDLQMNSLKPEDTAVYYCAKRRYWYYRSRDWFVSGDYWGQGTQVTVSS” as the sequence, how does the “polyreactivity (PSR sort gate)” value read?
**A.** The value was “low polyreactivity”.

**Q.** Which “polyreactivity (PSR sort gate)” value does the source give for “QVQLVESGGGLVQAGGSLRLSCAASGVILSAYAMGLYRQAPAKERELVAAITGSGGRTYYADSVKGRFTISRDNAKNTVYFQMNSLKPEDTAVNYCAARYTYVGSYTYNSWGQGPQVTVSS” here?
**A.** Its value is “high polyreactivity”.

**Q.** With “QVQLVESGGGLVQAGGSLRLSCAASGVNAMGWYRQAPGKEREFVAAITSIGGSTYYADSVKGRFTISRDNAKNTVYLQLNSLKPEDTAVYDCNTDRGPVKVSPLYESWGQGTQVTVSS” as the sequence, how does the “polyreactivity (PSR sort gate)” value read?
**A.** The value was “low polyreactivity”.

**Q.** With “QVQLVESGGGLVQAGGSLRLSCAASGVTFTYYAMGWYRQAPGKERELVAAISKSGGRTYYADSVKGRFTISRDNAKNTVYLQMNSLKPEDTAVYYCAARITREGYYWGQGTQVTVSS” as the sequence, how does the “polyreactivity (PSR sort gate)” value read?
**A.** Its value is “high polyreactivity”.

**Q.** With “QVQLVESGGGLVQAGGSLRLSCAASGVTFYYYAMGWYRQAPGKERELVASITSTDSTTYADSVKGRFTISRDNAKNTVYLQMNRLKPEDTAVYYCNRLYNHWYGGLDYWGQGTQVTVSS” as the sequence, how does the “polyreactivity (PSR sort gate)” value read?
**A.** Its value is “high polyreactivity”.

**Q.** Which “polyreactivity (PSR sort gate)” value does the source give for “QVQLVESGGGLVQAGGSLRLSCAASGYIFAGNAMGWYRQAPGKERELVAVITRGGRTYYADSVKGRFTISRDNAKNTVYLQMNSLKPEDTAVYYCAARYPYRGWGQGTQVTVSS” here?
**A.** The value was “high polyreactivity”.

**Q.** Which “polyreactivity (PSR sort gate)” value does the source give for “QVQLVESGGGLVQAGGSLRLSCAASGYIFANNAMGWYRQAPGKERELVAAISSSGGRTYYADSVKGRFTISRDNAKNTVYLQMNSLKPEDTAVYYCNKYGTALWRYYYWGQGTQVTVSS” here?
**A.** Its value is “high polyreactivity”.

**Q.** With “QVQLVESGGGLVQAGGSLRLSCAASGYIFARYAMGWYRQAPGTERELVARITTGDSTYYADSVKGRFTISRDNAKNTVYLQMNSLKPEDTAVYYCAADDNVSVVGLYYWGQGTQVTVSS” as the sequence, how does the “polyreactivity (PSR sort gate)” value read?
**A.** Its value is “low polyreactivity”.

**Q.** With “QVQLVESGGGLVQAGGSLRLSCAASGYIFDDNAMGWYRQAPGKERELVATNYADSVKGRFTISRDNAKNTVYLQMNSLKPEDTAVFYCAKAGYRSEFEYWGQGTQVTVSS” as the sequence, how does the “polyreactivity (PSR sort gate)” value read?
**A.** The value was “low polyreactivity”.

**Q.** With “QVQLVESGGGLVQAGGSLRLSCAASGYIFDLNAMGWSRQAPGKERELVAANSTGGGTYYADSVKGRFTISRDNAKNTVYLQMNILKPEDTAVYYCAADWGYWYAEYDYWGQGTQVTVSS” as the sequence, how does the “polyreactivity (PSR sort gate)” value read?
**A.** The value was “low polyreactivity”.

**Q.** Which “polyreactivity (PSR sort gate)” value does the source give for “QVQLVESGGGLVQAGGSLRLSCAASGYIFDRYAMGWYRQAPGKERELVAAISGRGGSTYYADSVKGRFTISRDNAKNTVYLQMNSLKPEETAVYYCARDVYVRNGQRARYDSWGQGTQVTVSS” here?
**A.** The value was “high polyreactivity”.

**Q.** For “QVQLVESGGGLVQAGGSLRLSCAASGYIFDVNTMGWYRQAPGKERELFAAITSGGTTYYADSVKGRFTISRDNAKNTVYLQMNSLKPEDTAVYYCAARRYPFEYDYWGQGTQVTVSS”, which “polyreactivity (PSR sort gate)” value is on record?
**A.** The value was “high polyreactivity”.

**Q.** Which “polyreactivity (PSR sort gate)” value does the source give for “QVQLVESGGGLVQAGGSLRLSCAASGYIFERNALGWYRQAPGKERELVAAINWRTGRTYYADSVKGRFTISRDYAKYNVYLQMNSLKPEDTAVYYCAKEHSTYWAQPTYSYDNWGQGTQVTVSS” here?
**A.** The value was “low polyreactivity”.

**Q.** With “QVQLVESGGGLVQAGGSLRLSCAASGYIFERNAMGWYRQAPGKERELVAAITDDGDDTYYADSVKGRFTISRDNAKNTVYLQMNSLKAEDTAVYYCAKDLYYGDYYYWGQGTQVTVSS” as the sequence, how does the “polyreactivity (PSR sort gate)” value read?
**A.** Its value is “low polyreactivity”.

**Q.** With “QVQLVESGGGLVQAGGSLRLSCAASGYIFEVNAMGWYRQAPGKERELVATIDTSSGSTNYADSVKGRFTISRDNAKNTVYLQMNSLKPEDTAVYYCAADDETVFLQDDYWGQGTQVTVSS” as the sequence, how does the “polyreactivity (PSR sort gate)” value read?
**A.** Its value is “low polyreactivity”.

**Q.** For “QVQLVESGGGLVQAGGSLRLSCAASGYIFFFYAMGWYRQAPGKERELVASITYRGGSTYYADSVKGRFTISRDNSKNTVYLQMNSLKPEDTAVYYCAADVRASRFDYWGQGTQVTVSS”, which “polyreactivity (PSR sort gate)” value is on record?
**A.** Its value is “low polyreactivity”.

**Q.** With “QVQLVESGGGLVQAGGSLRLSCAASGYIFFGNAMGWYRQAPGKERELVAAIRWRGTSTYYADSVKGRFTISRDNAKNTVYLQMNSLKPEDTAVYYCARLRTVGGYSKYDYWGQGSQVTVSS” as the sequence, how does the “polyreactivity (PSR sort gate)” value read?
**A.** The value was “low polyreactivity”.

**Q.** With “QVQLVESGGGLVQAGGSLRLSCAASGYIFGGNTLGWYRQAPGKERELVAAISYSGTSTYYADSVKGRFTISRDNAKNTVYLQMNSLKPEDTAVYYCAARERWYGSYYWGQGTQVTVSS” as the sequence, how does the “polyreactivity (PSR sort gate)” value read?
**A.** The value was “high polyreactivity”.
